Experimental data: the supplement of paper PMC10567573
± gives the standard deviation.

Experiment: protein stability index of a GFP-peptide fusion (GPS, HEK-293T) (PSI 1-6); higher = more stable
[1] = treatment: DMSO, c terminus: a fixed tail appended
[2] = treatment: MLN4924 1 uM, 8 h, c terminus: a fixed tail appended
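Note: 24-mer peptide tiles fused after GFP, lentivirally expressed, FACS-sorted into six equal bins by GFP/DsRed ratio, decoded by Illumina sequencing, PSI is the read-weighted mean bin number.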

Sequence | protein stability index [1] | protein stability index [2] | protein stability index (treatment: DMSO, c terminus: native) | protein stability index (treatment: MLN4924 1 uM, 8 h, c terminus: native)
EFSLVNVNLQRFGMNGQMLCNLGK [ETS2] | 2.32 ± 0.4 | 2.58 ± 0.16 |  | 
EGAIAVHCKAGLGRTGTLIACYVM [CDC14A] | 3.02 ± 0.56 | 2.86 ± 0.51 |  | 
EGGKLPPPPPPSYDPDYIQCPYCQ [ZC2HC1A] | 4.03 ± 0.3 | 4.45 ± 0.27 |  | 
EGNHPSARKLTAQRRASTVSSVTQ [NET1] | 4.39 ± 0.25 | 4.69 ± 0.18 |  | 
EGSREHAFQITGVWDASRAPRGTP [PLEKHN1] | 4.34 ± 0.27 | 4.39 ± 0.26 |  | 
EGSVACLWWDPIQRLLFSGASDNS [WDFY1] | 2.36 ± 0.32 | 2.43 ± 0.1 |  | 
EHDAWFIFFMAAFAFSNGYLASLC [SLC29A1] | 3.19 ± 0.5 | 3.25 ± 0.48 |  | 
EHSWIKAIRRRNVRGEDSGRKPER [DAPK3] | 3.62 ± 1.7 | 4.07 ± 0.23 |  | 
EINKRTAAENEFVLLKKDVDAAYA [KRT71] | 3.76 ± 0.26 | 4.24 ± 0.24 |  | 
EIPKQVKVKKLKNLKTLDSKPGVY [DENND6A] | 3.4 ± 0.34 | 3.31 ± 0.52 |  | 
EKEQEKMRQDLEEERVALNTEIEK [PKD2L1] | 5.45 ± 0.27 | 5.64 ± 0.15 |  | 
EKHCEFKQLALDHFKKTKKMGGKD [ATL3] | 4.64 ± 0.14 | 4.57 ± 0.39 |  | 
EKLKVAPPNADLEQGFQEGVPNAS [MFF] | 5.28 ± 0.17 | 5.22 ± 0.17 |  | 
EKTQKNQCWKSLFIDTYSDVGRYI [FBXO3] | 2.53 ± 0.73 | 2.15 ± 0.33 |  | 
ELCHHVAEVWVSGTIFIRNVLLFK [RETREG3] | 3.09 ± 0.67 | 2.81 ± 0.61 |  | 
ELETVDFKDKLEETKGQINNSIKD [SERPINB5] | 5.29 ± 0.46 | 5.51 ± 0.12 |  | 
ELFAWGRGDSGRLGLGTRESHSCP [NEK8] | 2.95 ± 0.26 | 3.27 ± 0.22 |  | 
ELLTLVNRKVSQRRVDFCKDPSAI [CASP6] | 2.22 ± 0.36 | 2.24 ± 0.14 |  | 
ELPSALESHEVPGTLSMGVPQIFK [ZNF24] | 4.07 ± 0.12 | 4.11 ± 0.13 |  | 
ELRRNHCFQDFKEEKPQENKTWRE [ELOA2] | 3.31 ± 0.31 | 3.47 ± 0.41 |  | 
EMAEQLMTLAYDNGINLFDTAEVY [KCNAB2] | 2.3 ± 0.44 | 2.44 ± 0.29 |  | 
EMREQYEAMAEKNRRDVEAWFFSK [KRT15] | 3.85 ± 0.13 | 3.88 ± 0.39 |  | 
EMSIHLSRPNGTSAMLLVTLGKVL [MED27] | 2.41 ± 0.46 | 2.2 ± 0.26 |  | 

Sequence | protein stability index [1] | protein stability index [2] | protein stability index (treatment: DMSO, c terminus: native) | protein stability index (treatment: MLN4924 1 uM, 8 h, c terminus: native)
EMWADQLTSLKDLYKSLKTLSAEL [CEP70] | 2.3 ± 0.18 | 2.1 ± 0.25 |  | 
ENQRENLEQPFLSVFKKGRRRVPV [PLEKHN1] | 3.31 ± 0.4 | 3.46 ± 0.18 |  | 
EPAGSLRELGVWRSLLRLRATRAG [C2CD2L] | 2.88 ± 0.29 | 3.06 ± 0.46 |  | 
EPHGKMFNEQTWEVSQQDPSHGEV [ZSCAN9] | 5.06 ± 0.16 | 5.04 ± 0.18 |  | 
EPVAAGSGIPEVKCYLNGVKVPGI [CLCN6] | 3.19 ± 0.61 | 3.59 ± 0.34 |  | 
EPVLLFGKIRRGAYALPAGLSAPA [TRIB3] | 2.76 ± 0.19 | 3.01 ± 0.26 |  | 
ERKQALYEYARRRFTERRAQEAD [AUP1] |  |  | 4.22 ± 0.15 | 4.25 ± 0.29
ERLKQEIERLTREVEATRRALIDR [DDIT3] | 3.6 ± 0.24 | 3.56 ± 0.29 |  | 
ERRPRRVEAERPHSLIGVIRETVL [FAM189A2] | 3.64 ± 0.32 | 3.91 ± 0.41 |  | 
ERRRGPAAGEQLQQQHVSCQVFPE [ATP23] | 4.6 ± 0.21 | 4.72 ± 0.36 |  | 
ERTSPGAIHYCASTSEESWTDSEV [SPDEF] | 5.25 ± 0.058 | 4.97 ± 0.18 |  | 
ESDSCQKCEQPFFWNIKQMWDTKT [WDFY1] | 3.25 ± 0.089 | 3.19 ± 0.24 |  | 
ESDTDGAGGNSSSSAAMQSSCSST [CCDC6] | 5.58 ± 0.2 | 5.69 ± 0.3 |  | 
ESGASIEDHNENGHTPLMEAGSAG [ANKRD17] | 5.47 ± 0.25 | 5.35 ± 0.28 |  | 
ESLEDVAMYISQEEWGHQDPSKRA [ZNF263] | 4.99 ± 0.069 | 5.03 ± 0.26 |  | 
ESLKVIGRGAFGEVRLVQKKDTGH [STK38L] | 4.69 ± 0.17 | 4.63 ± 0.19 |  | 
ESSTRLLLEKNASVNEVDFEGRTP [RIPK4] | 4.83 ± 0.79 |  |  | 
ESVTHHDYRMELAQAGTPAPTKPH [SPAG8] | 4.95 ± 0.26 | 4.99 ± 0.12 |  | 
ETRAEDPPWFEGLESRFQSKSGYL [DFFB] | 3.56 ± 0.063 | 3.63 ± 0.069 |  | 
EVDPTGHSFVLVTSLGLTYDGMLS [MAGEA10] | 2.51 ± 0.47 | 2.52 ± 0.51 |  | 
EYMKNLLKVGGILVMPLEEKLTKI [PCMTD2] | 2.73 ± 0.36 | 2.13 ± 0.33 |  | 
EYVAIKLEPMKSRAPQLHLEYRFY [CSNK1G3] | 3.3 ± 0.41 | 2.93 ± 0.64 |  | 
FAWPFYQPVDAIKLNLPDYHKIIK [BRD3] | 2.24 ± 0.67 | 2.19 ± 0.25 |  | 

Sequence | protein stability index [1] | protein stability index [2] | protein stability index (treatment: DMSO, c terminus: native) | protein stability index (treatment: MLN4924 1 uM, 8 h, c terminus: native)
FDDGDDIMATLGFGDSPKAEKRQI [FBF1] | 3.97 ± 0.24 | 4.32 ± 0.19 |  | 
FDDYSATLPLTLIVILENIAVAWI [SLC6A17] | 2.69 ± 0.44 | 3.28 ± 0.71 |  | 
FEEFLVMMVRQMKEDAKGKSEEEL [TNNC2] | 3.48 ± 0.37 | 3.28 ± 0.35 |  | 
FFPWREAKPGSTEKGLPLRKTHVL [MFSD9] | 2.72 ± 0.28 | 2.82 ± 0.076 |  | 
FGNRIKVLRSRIRFIHLVTGCVLG [POMT2] | 2.57 ± 0.38 | 2.23 ± 0.45 |  | 
FGPDSKSSALACTLPTLPAKVYVG [NCF4] | 2.74 ± 0.12 | 3.03 ± 0.43 |  | 
FGSSVPEKQSRCVNIEWHRFRFGQ [WSB1] | 2.07 ± 0.34 | 2.12 ± 0.24 |  | 
FIEALIQQYQEQLDKSTKLVETAI [TRIM63] | 2.66 ± 0.52 | 2.14 ± 0.39 |  | 
FISRTSIPNAASEEGDEDDWASNK [WEE1] | 4.3 ± 0.32 | 4.73 ± 0.31 |  | 
FKHILRTEGAFGLYRGLAPNFMKV [SLC25A25] | 2.18 ± 0.31 | 2.29 ± 0.32 |  | 
FLFAKLFSHITSARKARKYEIPHF [PHTF1] | 3 ± 0.43 | 2.79 ± 0.62 |  | 
FLPFLLCAVLLSAVQAQAGWLQHD [FADS1] | 2.73 ± 0.23 | 3.02 ± 0.66 |  | 
FLTILPEELQSWVRGHHPKSGEEA [ZNF232] | 3.7 ± 0.18 | 3.56 ± 0.35 |  | 
FPKDTLMNLHVYISEHEHFTDFNA [CLPTM1] | 2.37 ± 0.24 | 1.99 ± 0.42 |  | 
FPSAGQAQAAVQGPVGTDFKPLNS [ZNF207] | 3.67 ± 0.45 | 4.16 ± 0.4 |  | 
FRLKTINLQSLINNEIPDCYTFSV [MCOLN1] | 2.76 ± 0.41 | 2.51 ± 0.39 |  | 
FRLLNLKNDSLRKRYDGLKYDVKK [TSN] | 2.85 ± 0.21 | 2.94 ± 0.32 |  | 
FRRFAVHGDARATGREMHGKNWSK [TPPP] | 3.62 ± 0.12 | 3.65 ± 0.33 |  | 
FSAYIDSMAAVPTLELCHDELFAD [CEBPD] | 3.29 ± 0.37 | 3.1 ± 0.3 |  | 
FSGCLNCSKVSELTERLKVLEAKM [EMID1] | 2.83 ± 0.29 | 2.926 ± 0.029 |  | 
FSGDGEYIVAGSARQHALYIWEKS [RBBP5] | 2.59 ± 0.32 | 2.57 ± 0.32 |  | 
FSGRMEVLTDSEGWILIDRCGKHF [KCTD10] | 2.57 ± 0.28 | 2.77 ± 0.4 |  | 
FTKANFWYQPSFHGVDLSALRGAA [CARM1] | 2.38 ± 0.83 | 1.92 ± 0.3 |  | 

Sequence | protein stability index [1] | protein stability index [2] | protein stability index (treatment: DMSO, c terminus: native) | protein stability index (treatment: MLN4924 1 uM, 8 h, c terminus: native)
FVAENSSLHPESGQENDATSPHFS [CD69] | 3.74 ± 0.56 | 4.23 ± 0.42 |  | 
FVEKNPTIVNFPITNVDLREYLSE [USP39] | 2.73 ± 0.66 | 3.01 ± 1 |  | 
FVHGLEDEMYEVRIAAVEALCMLA [INTS4] | 2.34 ± 0.61 | 2.23 ± 0.46 |  | 
FVQDVLFVLQAIGIPGWGFSGWIS [SCAMP3] | 3.33 ± 0.35 | 2.73 ± 0.33 |  | 
GAAGRSHHLDEDEERERIERVRRI [KCTD10] | 5.31 ± 0.23 | 5.07 ± 0.46 |  | 
GAFLRTCLLSSNSRSLLTGGYNLA [TLE6] | 2.72 ± 0.32 | 2.79 ± 1.1 |  | 
GAPSVGQPGAGFGMPPAGTGMPMM [SNAP91] | 3.61 ± 0.23 | 3.76 ± 0.23 |  | 
GARLGGFNFVSTPKCSCGQLAAVH [RNF180] | 2.36 ± 0.55 | 2.54 ± 0.21 |  | 
GDIASGYHYGVASCEACKAFFKRT [ESRRG] | 2.76 ± 0.38 | 3.02 ± 0.41 |  | 
GDLSPGHGASAPSVSREARQTVPP [PWWP2B] | 5.03 ± 0.17 | 5.25 ± 0.077 |  | 
GDVHTVRKMLEQGYSPNGRDANGW [ASB7] | 3.51 ± 0.23 | 3.71 ± 0.24 |  | 
GEAAGSSLIGHLQTLSPDMQGAYC [DUSP5] | 3.82 ± 0.34 | 3.87 ± 0.26 |  | 
GEFPSPVSISIISSTSGGSGYGFR [KRT71] | 2.65 ± 0.34 | 3.04 ± 0.64 |  | 
GEGLRIYWGSPEEQSLLSRWNPWS [TPRG1] | 2.28 ± 0.2 | 1.9 ± 0.35 |  | 
GEKEEEDKDDEEKPKIEDVGSDEE [HSP90AB1] | 5.6 ± 0.24 | 5.77 ± 0.12 |  | 
GEPLEKVASVGNSRPTGQQLESLG [KISS1] | 5.04 ± 0.25 | 5.1 ± 0.13 |  | 
GFENMDFFTLDLEHIADALRAIDF [TRIM63] | 2.11 ± 0.17 | 2.25 ± 0.35 |  | 
GGGFGGGSCQLGGGRGVSTCSTRF [KRT13] | 3.5 ± 0.17 | 3.59 ± 0.21 |  | 
GGLIYWIGLTKAGMEGDWSWVDDT [CD207] | 2.12 ± 0.7 | 3.07 ± 1.4 |  | 
GGQITDEMAEQLMTLAYDNGINLF [KCNAB2] | 2.79 ± 0.17 | 2.9 ± 0.35 |  | 
